Reference: patent publication US20250034594A1, “RNA-GUIDED GENOME RECOMBINEERING AT KILOBASE SCALE” (THE BOARD OF TRUSTEES OF THE LELAND STANFORD JUNIOR …, priority 2021, published 2025)

B1: SSAP_151: SEQ ID NO: 320; Mammaliicoccus (protein, listed as Mammaliicoccus sp.)
chain: ATNESIKNQVASRKKNEVQNKSPKTQLNDLLIKMGPEIQRALPKHMDADRMARIAMTAVSTTPKLLECDQMSFIGALMQASQLGVEPNTGLGQAYLIPYGGKVQFQLSYKGLIDLATRSGQYKAIYAHEVFPNDEFNYQYGLFKNLEHIPSQEPEGEPIGYYAVYHLKNGGYDFVYWTRERVDKHAKDFSQAVQKGWTSPWKTNYDAMAKKTVLKEVLKYAPKSIEMNKAVNSDSTIKDEINEDMSSVIDITDYEEVNDQQEEKKEESK
B2: SSAP_268: SEQ ID NO: 437; Oceanobacillus sp. E9 (protein, listed as Oceanobacillus sp.)
chain: ATNDSLKNQLSSKQGNQNTPSGYTIKQLMGAESVKKRFEEMLDSKASQFMASVINLVNGDTNLQKCDQMSVVSSAMVAATLDLPIDRNLGYAWVIPYGNQATFQLGYKGYIQLALRSGQYRNINVIEVYEGELQSFNRLTEEIELDFEKRTSDKVIGYTGFFELINGFRKTVYWSKAEIEKHKNKFSKSGFGWKNDWDAMAKKTVVRNMLNKWGILSIDMQKAYVEETKDPSEPNGEVIDLNLTEDELTAAQEQFSDENANE
B3: SSAP_278: SEQ ID NO: 447; Paraliobacillus ryukyuensis (protein, listed as Paraliobacillus ryukyuensis)
chain: ATNDTLKNQISNKKNNQVAEGKQGTTMKGLLNSPAVMKRFEEVLGKRANQFTASILSLYNNEKTLQKSEPMSVISSAMIAATLDLPIDKNLGYAWIVPYGNKAQFQLGYKGYIQLALRTGQYRNINVIEVYEGELVKWNRLTEELELDFEQKKSDKVIGYTGYFELINGFRKTVYWSKADIEKHKQKFSKSNFGWSNDWDAMAKKTVIRNMLNKWGILSIDMQKAYSTDEIEQEQESNDFIDGEWAEVSEDDITEAMNEV
B4: SSAP_141: SEQ ID NO: 310; Hungatella hathewayi (protein, listed as Hungatella hathewayi)
chain: RRDRNVTAVKQELEKKAAGTSQAVKLTKNMTIVDMVKALEPEIKRALPSILTPERFTRMALSAINNTPKLAECTPMSFIAALMNAAQLGLEPNTPLGQAYLIPYKNKGVLECQFQLGYRGMIDLAYRNERMQSIEAQTVYEHDEFFYELGLHPALVHRPTFEDRGEIRAFYAIFRLDNGGYRFEVMSKSYVDAYAMRYSKAFTSEFSPWKSNYEGMAKKTVIKQLLKYAPVKSEFQKAITLDETVKTELSVDMSEVQNEDLSETLTAESAA
B5: SSAP_122: SEQ ID NO: 291; Clostridium transplantifaecale (protein)
chain: TDVKEELARKAGNTGKQEIRLNKNMSIPDMVKVLEPEIKRALPSVLTPERFTRMALSAINNTPKLAECSPMSFIAALMNAAQLGLEPNTPLGQAYLIPYKNKNQLECQFQIGYKGYIDLAYRTGQVQMIQAQAVHEFDYFEYEYGLTPKLVHRPGEGERGEITYFYGLFKMINGGFGFEVMNRAAMDAFAKQYSQSINSKYSPWNSQYEEMAKKTIIKKALKYGPVKSDFQKAISMDESIKTELSIDMSEVRNEDLIDGEFEEAA
modifications: Clostridium transplantifaecale
B6: SSAP_214: SEQ ID NO: 383; Clostridium tunisiense (protein)
chain: TTKANVTSVKNALKEQIQVQQVAAQTDTSFQGVLTKQLQHQFKAIQSLVPKHVTPERLCRIGINAASRNPQLMNCTPETIVGAIVNCATLGLEPNLLGHAYIVPFYNNKTGKMEAQFQVGYKGALDLIRRTGAVSTLSAHEVYGPRSIFWTQYFY
modifications: Clostridium tunisiense
B7: SSAP_117: SEQ ID NO: 286; Enterocloster bolteae (protein, listed as Enterocloster bolteae)
chain: GVNVKHELEQRAAGQGASVRLTKNMTIVDMVKALEPEIRRALPAVLTPERFTRMALSSINNTPELAECTPMSFIAALLNAAQLGLEPNTPLGQAYLIPYKNKGKLECQFQLGYKGLIDLAYRTGQVQIIQAQVVREFDSFEYQYGLDSKLVHKPGEGARGEITYVYGLFKLSNGGYGFEVSNKTEMDTFAARYSKSFGSKYSPWTEDYESMAKKTVIKRVLKYAPISSDFQKALSMDETIKTGIAVDMSEIRNECLPEEAGSEAA
B8: SSAP_119: SEQ ID NO: 288; Bacillus albus (protein, listed as Bacillus albus)
chain: ATNEKLKNQLANRKESAPATPEQTVEAYMKKMAPKMAEVLPKHMDMGRMSRMALTTMRTSPKLLNCTVSSLMGAVMQAVQLGLEPGLLGHCYILPYKGEATFIIGYKGMIDLARRSGHIQSIYAHAVHENDEFDYELGLHPKLEHKPVHGDRGAFVGAYAVAHFKDGGYQMEFMPKSEIEKRRKRSASANSSFSPWKSDYEEMAKKTVIRYIFKYLPISIEVQLLAAQDEVVRKDITEEPEFIEADPIDVEQPTTEGDGQQEFSIEE
B9: SSAP_134: SEQ ID NO: 303; Andreesenia angusta (protein, listed as Andreesenia angusta)
chain: SNLKNQLANKAGGTATKKQPQTMQDWIKVMEPQIKKALPSVITAERFTRMALTAISTNPKLAECTPESFMGALMNAAQLGLEPNTPLGQAYLIPYGKSVQFQVGYKGLMELAQRSGQFKSIYAHTVYENDEFEVEYGLTQNIVHKPNFDDRGKPIGFYAVYKLTNGGENFVFMTQREVEEFGKAKSKTFNNGPWKTDFEAMAKKTVLKQLLKYAPIKVEFQREIAQDATIKTEIAEDMTEVPEEMVEAEYEVVEQNTMAEDADLKGTPFETK
B10: SSAP_59: SEQ ID NO: 228 (protein)
chain: SEIQQQAEAQTQAHPTAVLDDYRGAIASVAPPGTNIDLFIRMTKSNVNRSDEIVAAVKRNPGLFMQAVMDSAALGHIPGSEYYYLTPRRDGISGIESWKGVAKRIFNTGRYQRIVCEVVYEGEQWEFQPGEDLKPKHVIDWDARQVGSKVRFTYAYAVDFEGNPSTVAVCTKLDLDKAQKQSRGKVWDQWYEQMAKKTAIKRLEDFVDTSAVDLRADGSSRRHSAEVAE
B11: SSAP_307: SEQ ID NO: 476; Acetobacterium dehalogenans (protein)
chain: CLRSWTRSFSNSVPLKIRFRLLYTAFLSQGSPLSSVNTTQSADKGSPIFFYAMFKTKDGGYGFEVMSVEDVRAHAKKYSQSFSSAYSPWSKNFEEMAKKTVLKKALKYAPLKSDFVRGIVVDETIKREISEDMYAAPSIEIEYEVDEDGVIQDEPTSNELTEAEK
modifications: Acetobacterium dehalogenans
B12: SSAP_17: SEQ ID NO: 186 (protein)
chain: ATNDELKNQLANKQNGGQVASAQSLDLKGLLEAPTMRKKFEKVLDKKAPQFLTSLLNLYNGDDYLQKTDPMTVVTSAMVAATLDLPIDKNLGYAWIVPYKGRAQFQLGYKGYIQLALRTGQYKSINVIEVRDGELLKWNRLTEEIELDLDNNTSEKVIGYCGYFQLINGFEKTVYWTRKEIEAHKKKFSKSDFGWKKDYDAMAKKTVLRNMLSKWGILSIDMQTAVTEDEAEPRERKDVTEDESIPDIIDAPITPSDTLEAGSEVQGSMI
B13: SSAP_159: SEQ ID NO: 328; Clostridium hathewayi CAG: 224 (protein, listed as Clostridium hathewayi)
chain: ANDIRGELARRASGTETQAVKLTKNMSIPDMIKALEPEIKRALPTILTPERFTRIALSAINNTPKLAECSPMSFIAALMNAAQLGLEPNTPLGQAFLIPYKVKGSLECQFQIGYRGMIDLAYRNERVQSIEAHTVYENDVFEYELGLNPRLVHIPTMEEPGDPIAFYGIFRLDNGGFRFEVMNKNAIDAYAARYSKAYDSASSPWKNNYESMACKTVLKQLLKYSPMKSEFQKAVSMDESVKTELSVDMSEVQNVNLIEETQEDAA

Tests used:
Assay type in all cases: cell-based
gene editing with Cas9 = assay: Screen of 322 new SSAP proteins, gene editing activity with Cas9 (Table 5); design: Cas9 with SSAP activity: scale not given here
How it was run: (§1)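 The 322 SSAP proteins were found in sequence data and then synthesized. Each was screened for gene editing activity when paired with Cas9 and with dCas9.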

[1] = system: gene editing with Cas9 and dCas9; assay: Screen of 322 new SSAP proteins, activity across all experiments (Cas9 and dCas9, Table 5); design: scale not given here
How it was run: as §1

gene editing with dCas9 = assay: Screen of 322 new SSAP proteins, gene editing activity with dCas9 (Table 5); design: dCas9 with SSAP activity: scale not given here
How it was run: as §1

Row | Molecule | Cas9 with SSAP activity (gene editing with Cas9) | Cas9 with SSAP activity (normalized) (gene editing with Cas9) | Activity across all experiments [1] | dCas9 with SSAP activity (gene editing with dCas9) | dCas9 with SSAP activity (normalized) (gene editing with dCas9)
1 | B1 | −4.713 | −0.683 | −2.985 | −1.257 | −0.422
2 | B2 | −0.160 | −0.383 | −0.656 | −1.151 | −0.400
3 | B3 | 1.070 | 2.231 | −0.030 | −1.129 | −1.000
4 | B4 | −2.047 | −0.694 | −1.613 | −1.179 | −0.244
5 | B5 | 1.429 | 0.558 | 0.144 | −1.142 | −0.148
6 | B6 | −0.428 | −0.545 | −0.758 | −1.088 | −1.120
7 | B7 | −4.474 | −1.192 | −2.868 | −1.263 | −0.179
8 | B8 | −0.911 | −3.635 | −1.050 | −1.189 | −0.361
9 | B9 | −1.284 | −1.104 | −1.168 | −1.053 | −0.424
10 | B10 | 0.218 | 0.538 | −0.491 | −1.201 | −0.336
11 | B11 | −1.090 | −2.185 | −1.095 | −1.100 | −0.907
12 | B12 | −0.287 | −0.195 | −0.687 | −1.088 | −0.491
13 | B13 | 1.622 | 2.756 | 0.233 | −1.156 | −0.358
